The text below walks through data of publication PMC11870023, “A facile assay for zDHHC palmitoyl transferase activation elucidates effects of mutation and modification” (Journal of Lipid Research, 2025).

The subject of this series is T1, CC(C)(COP(=O)(O)OP(=O)(O)OC[C@H]1O[C@@H](n2cnc3c(N)ncnc32)[C@H](O)[C@@H]1OP(=O)(O)O)[C@@H](O)C(=O)NCCC(=O)NCCSC(=O)CCCCCCCCCCCCCCCNc1ccc([N+](=O)[O-])c2nonc12.
T1 construct: full length, HA tag kept (pEF-Bos-HA), HEK293 membrane fraction
Briefly: auto-S-palmitoylation of HEK293 membranes, SDS-PAGE fluorescence normalised to tag Western blot. In kind it is cell-based, Mus musculus. To be noted: pH 7.4, 37 °C, labelled compound, covalent thioester at active-site Cys. (Immunoblotting shows a protein as a band on a membrane.)

Chain of mouse zDHHC17 (Mus musculus) (chain, as listed by the source): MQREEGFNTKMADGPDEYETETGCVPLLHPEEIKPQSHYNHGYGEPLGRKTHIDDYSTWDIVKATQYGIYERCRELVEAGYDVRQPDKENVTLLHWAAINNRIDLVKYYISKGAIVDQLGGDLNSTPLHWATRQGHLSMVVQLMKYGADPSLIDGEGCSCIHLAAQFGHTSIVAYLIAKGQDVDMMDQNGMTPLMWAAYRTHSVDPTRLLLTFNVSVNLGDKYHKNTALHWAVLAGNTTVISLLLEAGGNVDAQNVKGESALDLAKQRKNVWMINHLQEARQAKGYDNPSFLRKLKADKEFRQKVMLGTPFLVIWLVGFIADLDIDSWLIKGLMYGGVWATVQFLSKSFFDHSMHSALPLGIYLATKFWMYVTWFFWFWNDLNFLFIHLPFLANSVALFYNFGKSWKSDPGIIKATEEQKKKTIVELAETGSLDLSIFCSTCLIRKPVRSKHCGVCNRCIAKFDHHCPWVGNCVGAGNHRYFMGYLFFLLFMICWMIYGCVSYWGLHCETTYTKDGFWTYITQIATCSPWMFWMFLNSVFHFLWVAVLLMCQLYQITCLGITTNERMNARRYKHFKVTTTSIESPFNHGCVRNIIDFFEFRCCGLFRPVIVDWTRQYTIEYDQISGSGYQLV

As for mouse zDHHC17 (Mus musculus), the Michaelis constant (Km) was 6.20 ± 1.20 µM.

Usually Km stands for the concentration of substrate that gives half-maximal velocity.
